In test [1] the target is rat FcεRI (high affinity IgE receptor) on RBL-2H3 cells (rat) (UniProt P12371). Put plainly: FACS on RBL-2H3 cells; FITC-conjugated IgE after preincubation with saturating unconjugated 4H7 (competitor). Also noted: unit not given here.
Test [2] shares this target. Put plainly: FACS on RBL-2H3 cells; FITC-conjugated IgE after preincubation with saturating unconjugated 3A9 (competitor). The conditions noted are these: scale: mCi.
For test [3] the target is unchanged. As to the kind of experiment: FACS on RBL-2H3 cells; FITC-conjugated IgE after preincubation with saturating unconjugated BC4 (competitor). The conditions noted are these: scale: mCi.
For test [4] the target is unchanged. Put plainly: FACS on RBL-2H3 cells; FITC-conjugated IgE after preincubation with saturating unconjugated 1A12 (competitor). The conditions noted are these: scale: mCi.
The target is the same in test [5]. Put plainly: FACS on RBL-2H3 cells; FITC-conjugated IgE after preincubation with saturating unconjugated AA4 (anti-ganglioside Gd1b, competitor). The conditions noted are these: scale: mCi.
Test [6] has the same target. As to the kind of experiment: FACS on RBL-2H3 cells; FITC-conjugated IgE after preincubation with saturating unconjugated 5.14 (competitor). As to conditions: scale: mCi.
Test [7] shares this target. As to the kind of experiment: FACS on RBL-2H3 cells; FITC-conjugated IgE at a subsaturating concentration, no preincubation. The conditions noted are these: scale: mCi.

In the case of IgE (antibody), the Median Fluorescence Intensity in test [1] turned out to be 6.4; in test [2] it was 6.5; in test [3], 5.8; in test [4], 61; in test [5] it was 12.3; in test [6], 5.5. This substance also displayed a Median Fluorescence Intensity in test [7] of 75.

For the origin of these results see patent publication US7026283.
